From the RNAGym collection of RNA variant scans (doi:10.1073/pnas.2313332121)
Fewer inactive variants are shown than the library holds.

B1: TPR 5TU (parent)
chain: GGAUCUUCUCGAUCUAACAAAAAAGACAAAUCUGCCACAAAGCUUGAGAGCAUCUUCGGAUGCAGAGGCGGCAGCCUUCGGUGGCGCGAUAGCGCCAACGUUCUCAACUAUGACACGCAAAACGCGUGCUCCGUUGAAUGGAGUUUAUCAUG

Variants of: B1
Test: polymerase ribozyme fitness, log enrichment relative to wild type (log ratio); higher = more active; in vitro selection for triplet polymerase activity
Outline: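 Mutant libraries of each subunit of a heterodimeric triplet polymerase ribozyme were built by PCR and transcribed. Each library went through one round of in vitro selection in triplicate: annealing with biotinylated primer, partner subunit and triplets, frozen incubation at −7 °C, gel excision of extended constructs, streptavidin-bead capture and RT-PCR. Input and output libraries were Illumina-sequenced; only genotypes with ≥10 input reads and ≥1 read per output were kept. Fitness is log2(genotype enrichment/wild-type enrichment), using inverse-variance-weighted replicate averages.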

Row | Variant | polymerase ribozyme fitness (log ratio)
1 | GGAUCUUCUCGAUCUAACAAAAAUGACAAAUCUGCCACAAAGCUUGAGAGCAUCAUCGGAUGCAGAGGCGGCAGCCUUCGGUGGCGCGAUAGCGCCAACGUUCUCAACUAUGACACGCAAAACGCGUGCUCCGUUGAAUGGAGUUUAUCAUG | -0.466
2 | GGAUCUUCUCGAUCUAACAAAAAUGACAAAUCUGCCACAAAGCUUGAGAGCAUCGUCGGAUGCAGAGGCGGCAGCCUUCGGUGGCGCGAUAGCGCCAACGUUCUCAACUAUGACACGCAAAACGCGUGCUCCGUUGAAUGGAGUUUAUCAUG | 0.467
3 | GGAUCUUCUCGAUCUAACAAAAAUGACAAAUCUGCCACAAAGCUUGAGAGCAACUGUGGAUGCAGAGGCGGCAGCCUUCGGUGGCGCGAUUGCGCCAACGUUCUCAACUAUGACACGCAAAACGCGUGCUCCGUUGAAUGGAGUUUAUCAUG | ≤ -4.2
4 | GGAUCUUCUCGAUCUAACAAAAAUGACAAAUCUGCCACAAAGCUUGAGAGCAUCUUCGGAUGCAGAGCCGGCAGCCUUCGGUUGCGCGAUAGCGCCAACGUUCUCACCUAUGACACGCAAAACGCGUGCUCCGUUGAAUGGAGUUUAUCAUG | ≤ -4.2
5 | GGAUCUUCUCGAUCUAACAAAAAUGACAAACCUGCCACAAAGCUUGAGAGCAUCUUCGCAUGCAGGGGCGGCAGCCUUCGGUGGCGCGAUUGCGCCAACGUUCUCAACUAUGAUACGCAAAACGCGUGCUCCGUUGAAUGGAGUUUAUCAUG | ≤ -4.2
6 | GGAUCUUCUCGAUCUAACAAAAAUGACAAAUCUGCCACAAAGCUUGAGAGCAUCAUCGGAUGCAGAGGCGGCAGCCUUCGGUGGCGUGAUAUCGCCAACGUUCUCAACUAUGACACGCAAAACGCGUGCUCCGUUGAAUGGAGUUUAUCAUG | -3.1
7 | GGAUCUUCUCGAUCUAACAAAAAUGACAAAUCUGCCACAAAGCUUGAGAGCAACUUGGGAUGCAGAGGCGGCAGCCUUCGGUGGCGCGAUAGCGCCAACGUUCUCAACUAUGACUCGCAAAACGCGUGCUCCGUUGAAUGGAGUUUAUCAAG | ≤ -4.2
8 | GGAUCUUCUCGAUCUAACAAAAAUGACAAAUCUGCCACAAAGCUUGAGAGCAUCUUCCGAUGCAGAGGCGGCAGCCUUCGGUGGCGCAAUAGUGCCAACGUUCUCAACUAUGACACGCAAGACGCGUGCUCCGUUGAAUGGAGUUUAUCAUG | ≤ -4.2
9 | GGAUCUUCUCGAUCUAACAAAAAUGACAAAACUGCCUCAAAGCUUGAGAGCAUCUUCGGAUGCAGAGGCGGCAGCCUUCGGUGGCGCGAUAGCGCCAACGUUCUCAACUAUGACACGCAAAACGCGUGCUCCGUUGAAUGGACUUUAUCAUG | ≤ -4.2
10 | GGAUCUUCUCGAUCUAACAAAAAUGACAAAUCUGCCACAAAGCUUGAGAGCAUCUUCGGAUGCAGAGGCGGCACCCUUCGGUGGCGCGAUAGCGCCAACGUUCUCAACUAUGACACGCAAAACGCGUGCUCCGUUGAAUGGAGUUUAUCAUG | -4.19
11 | GGAUCUUCUCGAUCUAACAAAAAUGACAAAGCUGCCACAAAGCUUGAGAGCCUCUUCGGAUGCAAAGGCGGCAGCCUUCGGUGCCGUGAUAGCGCCAACGUUCUCAACUAUGACACGCGAAACGCGUGCUCCGUUGAAUGGAGUUUAUCAUG | ≤ -4.2
12 | GGAUCUUCUCGAUCUAACAAAAAUGACAAAUCUGCCACAAAGCUUGAGAGCAACAUCGGAUGCAGAGCCGGCAGCAUUCGGUGGGGCGAUAGCGCCAACGUUCUCAACUAUGACACGCAAAACGCGUGCUCCGUUGAAUGGAGUUUAUCAUG | ≤ -4.2
13 | GGAUCUUCUCGAUCUAACAAAAAUGACAAAUCUGCCACAAAGCUUGAGAGCAUCUUCAGAUGCAGAGGCGGCAGCCUUGGGUGGCGCGAUUGCGCCAACGUUCUCAACUAUGACACGAAAAACGCGUGCUCCGUUGAAUGCAGUUUAUCAUG | ≤ -4.2
14 | GGAUCUUCUCGAUCUAACAAAAAUGACAAAUCUGCCACAAAGCUUGAGAGCAUCUCCGGAUACGGAGCCGGCAGCCUUCGGUAGCGCGAUAGCGCCAACGUUCUCAACUAUGACACGCAAAACUCGUGCUCCGUUGAAUGGAGUUAAUCAUG | ≤ -4.2
15 | GGAUCUUCUCGAUCUAACAAAAAUGACAAAUCUGCCACAAAGCUUGAGAGCAUCUUCGGAUGCAGAGACGGCAGCCUUCGGUGGCGCGAUAGCGCCAACGUUCUCAACUAUGACACGCAAAACGCGUGCUCCGUUGAAUGGAGUUUAUCAUG | -3.78
16 | GGAUCUUCUCGAUCUAACAAAAAUGACAAACCUGCCACAAAGCUUGAGAGCAUCUUCGGAUGCAGAGUCAGCAGCCUUCGGUGGCGCGAUAGCUCCAACGUUCUCAACUAUGACAGGCAAAACGCGUGCUCCGUUGAAGGGAGUUUAUCAUG | ≤ -4.2
17 | GGAUCUUCUCGAUCUAACAAAAAUGACAAAUCUGCCACAAAGCUUGAGAGCAUCUUCGGAUGCAGAGGCGGCAGCCUUCGGUGGCUCGAUAGCGCCAACGUUCUCAACUAUGACACGCAAAACGCGUGCUCCGUUGAAUGGAGUUUAUCAUG | -2.59
18 | GGAUCUUCUCGAUCUAACAAAAAUGACAAAUCUGCCACAAAGCUUGAGAGCAUCUUCGGAUGCAGAGGCGGCAGCCUUCGGUGGCACGAUAGCGCCAACGUUCUCAACUAUGACACGCAAAACGCGUGCUCCGUUGAAUGGAGUUUAUCAUG | -1.43
19 | GGAUCUUCUCGAUCUAACAAAAAUGACAAAUCUGCCACAAAGCUUGAGAGCAUCUUCGGAUGCAGAGGCGGCAGCCUUCGGUGGCGCGAUAGCGCCAACGUUCUCAACUAUGACACGCAAAACGCGUGCUCCGUUUAAUGGAGUUUAUCAUG | -2.44
